The nature of the series: yeast display, Sf9 membrane polyspecificity reagent, FACS + sequencing; frameworks hold sequencing errors. The method in brief:
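Galactose-induced (36–48 hours) yeast carrying a synthetic nanobody display library were exposed to 10% biotinylated, detergent-solubilized Sf9 membrane reagent at 4 °C for 1 hour. FACS followed streptavidin microbead enrichment, using low and high (top ~1%) gates for expression (anti-HA) and reagent binding (streptavidin). Colony PCR, MiSeq 2 × 250 sequencing and CDR-length filtering followed. Labels for polyreactivity reflect the gate of origin.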
On to “QVQLVESGGGLVQAGGSLRLSCAASGYTFVTNAMGWYRQAPGKERELVAAITTVGSTNYADSVKGRFTISRDNAKNTVYLQMNSLKPEDTAVYYCNANWYEWYDWGQGTQVTVSS”, for which the “polyreactivity (PSR sort gate)” value is listed as “low polyreactivity”. Turning to “QVQLVESGGGLVQAGGSLRLSCAASGSIFGYYALGWSRPAPGKERELVASITSGDSTNYADSVKGRFTISRDNAKKTVYLQMNSQKPEDTAVYYCTTERGDYDEYDYWGQGTQVTVSS”, the “polyreactivity (PSR sort gate)” value was “low polyreactivity”. Consider “QVQLVESGAGLVQAGGSLRLSCAGSGLTFRGNAMGCYRQAPGKERELVAAISWSDDTTDYADSVKGRFTISRDNAKNTVYLQMNSLKPEDTAVYYCAARRRIYRSMGFWGQGSQVTVSS”, for which the “polyreactivity (PSR sort gate)” value was “low polyreactivity”. The value for “QVQLVESGGGLVQAGGSLRLSCAASGSIVVPYTMGWYRQAPGKEMELVAAINSSDDSTFYADSVKGRFTISRENAKNTVYIKMNSLKPEDTAVYYCNATGYARWYTGDYWGQGTQVTVSS” was “low polyreactivity”. With “QVQLVESGGGLVQAGGSLRLSCAASGLIFWAYAMGWYRQAPGKERELVAAINWRGGSTYYADSVKGRFTISRDNAKNTVYLQMNSLKPEDTAVYYCAADSYYDEYDYCGQGTQVTVSS”, the “polyreactivity (PSR sort gate)” value is recorded as “low polyreactivity”. For “QVQLVESGVGLVQAGVILRLSCAASGRTFRRNAMGWYRHAPGKERELVAAISWRGGSTYYADSVKGRFTISRDNAKNTVYLQLNSMKPEDTAVYYFAAGFESYDYWGQGTQVTVSS”, the “polyreactivity (PSR sort gate)” value is on record as “high polyreactivity”. For the sequence “QVQLVESGGGLVQAGGSLRLSCAASGIIFRSYAMGWYRQAPGKERELVAGISLSGGSTYYADSVKGRFTISRDNAKNTVYLQMNSLKPEDTAVYYCATRNHYFRALRYGYCGQGTQVTVSS”, the “polyreactivity (PSR sort gate)” value is on record as “high polyreactivity”. As for “QVQLQESGRRPGAAGGSPRMSCAASGNIFWVAVMGRYRQAPGKERELVASIGFGCTTYYADSVKCRFTISRDNAKNTVYLQMISLQPEDTAVYYCAAPHYDWGELDYWGQGTQVPVSS”, the “polyreactivity (PSR sort gate)” value is recorded as “low polyreactivity”. As to “QVQLVESGGGLVHAGGSLRLSCDASGITFWAYAMGWYRQAPGKEREFVAAITVSTGSTFYADSVKGRFTISRDNAKNTVYLQMNSLKREDTALYYCAAPQDGTWWLPAGGYWGQGTQVTVSS”, the “polyreactivity (PSR sort gate)” value is “low polyreactivity”. On to “QVQLVESGGGLVQAGGSLRLSCAASGSIFTINAMGWYRQAPGIERALVAAIRSGGGTNYADSVKGRFTISRDNAKNTVYFQMNSLKPEDTAVYYCAADLWAGKYGEYDYWGQGTQVTVSS”, for which the “polyreactivity (PSR sort gate)” value is “high polyreactivity”.

Take “QVQLVESGGGLVQAVGSLRLSCAASGRTFGNYAMGWYRQAPGKERELVAAISRSGASTYYADSVKGRFTISRDNAKNSVYLQMNSLKPEDTAVYYCAARVLKPFKYGYWGQGTQVTVSS”: the “polyreactivity (PSR sort gate)” value is “high polyreactivity”.

In the case of “QVQLGESGGGLVQAGGSLRLSCAASGIIFGYYAMGWYRQAPGKERELVAAITWSGGSTYYADSVKGRFTISRDNAKYTVYLQMNSLKPEDTAVYYCAASAYVQPYDYWGQGTQVTVSS”, the “polyreactivity (PSR sort gate)” value was “high polyreactivity”. In the case of “QVQLVESGGGLVQEGGSLRLSCAASGSTFTYNDMGRYRQAPGKERELVAAITDSDGITYYADSVKGRFTISRDNAKNTVYLQMHSLKPEDTAVSYCAAYYYGSVAQDREYWGQGTQVTVSS”, the “polyreactivity (PSR sort gate)” value was “high polyreactivity”.

In the case of “QVQLVESGGGLVQAGGSLRLSCAASGIIFYKYAMGWYRQAPGKERELVAVISSGGSTYYADSVKGRFTISRDNAKNTVYLQMNSLKPEYNAVYYCNADCYRRGYDYWGKGTQVTVSS”, the “polyreactivity (PSR sort gate)” value is “high polyreactivity”. With “QVQLVESGGGLVQAGGSLRLSCAASGRTFRYYAMGWYRQAPGKERELVAAITVTVTSTFYADSVKGRFTISRDNAKNTVYLQMNSLKPEDTAVYYCAKVDRQYPGQYYYWGQGTQVTVSS”, the “polyreactivity (PSR sort gate)” value is “low polyreactivity”.

For “QVQLVESGGGLVQAGGSLRLSCAASGSIFGPYAMGWYRQAPGKEREVVAAINSGGSTNYADSVKGRFTISRDNAKNTVYLQMNSLKPEDTAVYYCNAADERSQGWVGYDHWGQCTQVTVSS”, the “polyreactivity (PSR sort gate)” value was “low polyreactivity”. In the case of “QVQLVESGGGLVQAGGRLRLSCAASGGIFDTYVMGRYRQAPGKERELVAGISSTGGSTYYADSVKGRFTISRDNAKNTVYLQMNSLKPEDTAVYYCNAEAGGFDYYGKTYRYGDYWGQGTQVTVSS”, the “polyreactivity (PSR sort gate)” value is reported as “low polyreactivity”. Regarding “QVHLVESGGGLVQAGGSLRLSCAAAGSTSARYAMGWYRQPPGKERELVATITRSGTTKYADSVKGRFTISRDNAKNTVYLQMNSLKPEDTAVYYCNTDTYFPLYDYWGQGTQVTVSS”, the “polyreactivity (PSR sort gate)” value is on record as “low polyreactivity”. The value for “QVQLVESGGGLVQAGGSLRLSCAASGSTFDQYGMGWYRQAPGKDRELVAAITSVGGTNYADSVKGRFTISRDNAKKTVYLQMNSLKPEDTAVYYCARRYPKNHKAPGRMDYWGQGTQVTVSS” was “low polyreactivity”; that for “QDQLVESGRGLVQAGGSLRLSCAASGSTFDGKAMGWSRQAPGKERELVATISNSGGRSYYADSVKGRFTISRDNAKNTVYLQMNSLKPEETAVYYCAADHPAFGPGYSFDYWGQGTQVTVSS” was “low polyreactivity”. “QVQLVESGGGLVQAGGSLRLSCAASGFTFQAYAMGWYRQAPGKERELVAAINFSTGRTYYADSVKGRFTISRDNAKNTVYLQMNSLKPEDTAVYYCAADGSWTRSYDFDYWGQGTQLTVSS”: the “polyreactivity (PSR sort gate)” value is given as “high polyreactivity”.

“QVQLVESGGGLVQAGGSLRLRCAASGYNIQHYAMGWYRQAPGKERELVAAITSGGSTTYADSVKGRFTISRDNAKNTVYLQMNSLKPEDTAVYYCKALRRARYTRKGYEYWGQGTQVTVSS”: the “polyreactivity (PSR sort gate)” value is “high polyreactivity”. Regarding “QVQLVESGGGLVQAGGSLRLSCAASGITFGAYAMGWYRQAPGKERELVAVITRGADTYYADSVKGRFTISRDNAKNTVYLQMNSLKPEDTAVYYCAAEIDLPYYYGSDDDDYWGQGTQVTVSS”, the “polyreactivity (PSR sort gate)” value was “high polyreactivity”. On to “QVQLVESGGGLVQAGGSLRLSCAASGRIFLDYAMGWYRQAPGKERELVAAINSGGRTNYADSVKGRFTISRDNAKNTVYLQMNSLKPEDTAVYYCAAGYWPRWFWPYEYWGQGTQVTVSS”, for which the “polyreactivity (PSR sort gate)” value is “low polyreactivity”.

As for “QVQLVESGGGLVQAGGSLRLSCAASGSIFPTYAMGWYRQAPGKERELVAAIRSGSNTYYADSVKGRFTISRDNAKNTVYLQMNSLKPEDTAVYYCNVGPQRKYPGRRTVPFGYWGQGTQVTVSS”, the “polyreactivity (PSR sort gate)” value is listed as “low polyreactivity”.

On to “QVQLVESGGGLVQAGGSLRLSCAASGFTFDFYAMGWYRQAPGKERELVAAISKNDGTTYYADSVKGRFTISRDNAKNTVYLQMNSLKPEDTAVYYCAAESGYPVYTYVSSGDYWGQGTQVTVSS”, for which the “polyreactivity (PSR sort gate)” value is on record as “low polyreactivity”. The value for “QVQLVESGGGLVQAGGSLLLSSAASGSTLVYYTMGRYIPAPGKERELVAGITGSGGSTYYADSVKGRFTISRDNAKNTVYLQMNILIPEDTAVYYCAKRGFRSYHYIRGVYYWGQGTQVTVSS” was “low polyreactivity”; that for “QVQLVESGGGVVQAGGSLRLSCAASGRTFRRNAMGWYRQAPGKERELVAAITSSGGSTYYADSVKGRFTISRDNAKNTVYFQMNSLKPEDTEVYYCNAFYTGRSAPDSWGQGTQVTVSS” was “high polyreactivity”.

For “QLQLVESGGGLVQAGGSLRLSCAASGYIFEFYAMGWYSQARGKERELVDAIRWNGGTYYADSVKGRFTISRDNAKNTVYLQMNSLKPEDTAVYDCSASRYYRYKIGYVSRAMDYWGQGTQVTVSS”, the “polyreactivity (PSR sort gate)” value was “high polyreactivity”.

Regarding “QVQLVESGGGLVQAGGSLRLSCAASGTFHKYAMGWYRQAPGKERELVASISRSGGSTSYADSVKGRFTISRDNAKNTVYLQMNSLKPEDTAVYYCNAYQSSGRYRNSYGYWGQGTQVTVSS”, the “polyreactivity (PSR sort gate)” value is given as “high polyreactivity”. The value for “QVQLVESGGGLVQAGGSLRLSCAASGSIISSYTMGWYRQAPGKERELVAVITSGDSTNYADSVKGRFTISRDNAKNTVYLEMNSLKPEDTAVYYCNADYVKVFKLQFDYWGQGTQVTVSS” was “low polyreactivity”; that for “QVQIVESGGGLVQAGGSLRLSCAASVFTFGENAMGWYRQAPGKERELVAAITSGDGTSYADSVKGRFTISRDNAKYTVYLQMNSLKPEDTSVYYCAADVGDELYYSTYDYWGQGTQVTVSS” was “low polyreactivity”.

As for “QVQLVESGGGLVQAGGSLRLSCAASGSIFYFYAMRWYRQAPGKERELVAAITDGGASTRYADSVKGRFTISRDYAKNTVYLHMNSLKPEDTAVYYCNARKYWKYGSYQYYWGQGTQVTVSW”, the “polyreactivity (PSR sort gate)” value was “high polyreactivity”. As to “QVQLVESGGFLVQAGGSLRLSCDASGSILADTSLGWYRQAPGKERELVAAISRRGGRTYYADSVKGRFTISRDNAKNTVYLQMNSLKPEDTGGYYCAAVGSFHIGDYWGLGTQVTVSS”, the “polyreactivity (PSR sort gate)” value was “high polyreactivity”. Take “QVQLVESGGGLVQAGGSLRLSCAASGRIYAVNAMRWYRQAPGKERELVARIRRIGGSTYYADSVKGRFTISRDNAKNTVYLQMNSMKPEDTAVYYCAKTLGRRHPGYDYWGQGTQVTVSS”: the “polyreactivity (PSR sort gate)” value was “high polyreactivity”. The value for “QVQLVESGGGLVQAGGSLRLSCAASGRTFDLNAMGWYRQAPGKERELVAAISFSVADTYYADSVKGRFTISRDNAKNTVYLQMNSLKPEDTAVYYCAADSELGSLSGESDYWGQGTQVTVSS” was “low polyreactivity”. Take “QVQLVESGGGLVQAGGSLRLSCAASGFIFSVNTMGWYRQAPGKERELVAAISSSSGRTYYADSVKGRFTISRDNAKNTVYLQMNSLKPEDTAVYYCAVLYRWFGAYETYDYLGQGTQVTVSS”: the “polyreactivity (PSR sort gate)” value was “high polyreactivity”. The value for “QVQLVESGGGLVQAGGSLRLSCAASGVTFAHNAMGWYRQAPGKERELVAAITRSGGSTYYADSVKGRFTISRDNAKNTVYLQMNSLKPEDTAVYYCIAGRRGSGYGYWGQGTQVTVSS” was “high polyreactivity”. In the case of “QVQRVESGGGLVQAGGSLRLTCAASGSIFRSYAMGWYRQAPGKERELVAAISSSSGSTYYADSVKGRFTISRDKAKYTVYLQMNSLKPEDTAVYYCAARYRIGNNGYEYWGQGTQVTVSS”, the “polyreactivity (PSR sort gate)” value was “low polyreactivity”. Consider “QVQLVESGGGLVQAGGSLRLSCAASGSIIVLNAMGWYRQAPGKERELVAAISSDGITYYADSVKGRFTISRDNAKNTVYLQKNSLKPEDTAVYYCAAYRVDYSDAYYYWGQGTQVTVSS”, for which the “polyreactivity (PSR sort gate)” value is given as “low polyreactivity”.

For “QVQLVETGGGLVQAGGSLRLSCAASGSTFKGYAMGWYRQSPGKERELVAAISRSGTRTYYADSVKGRFTISRDNAKNTVYLQMNSLKPEDTAVSFCNKDTGYIAHDNENGRDYWGQGTQVTVSS”, the “polyreactivity (PSR sort gate)” value was “low polyreactivity”.

For the origin of these results see the nanobody polyreactivity screen of Harvey et al. (2022).
